Experimental data published in US20220204580A1 (AstraZeneca / MedImmune, published 2022).
Numbered stars: 1 amine (or outer) side, 2 acyl side, 3 side chain; on linkers, the order of the positions; unused ones are H or OH. Bridge positions count the residues as written; N and C are the ends. Square brackets hold non-standard residues; d marks the D form. Side chains are listed from the residue outwards. Ends that are not written are not given here. * marks the point of attachment. C18 diacid = O=C(O)CCCCCCCCCCCCCCCCC(=O)*; γGlu = O=C(O)[C@H](CCC(=O)[*:2])N[*:1]; αMeF = C[C@](N)(Cc1ccccc1)C(=O)O; Aib = CC(C)(N)C(=O)O

B1: Peptide 149 (SEQ ID NO: 149) (peptide)
peptide: K([γGlu-C18 diacid])CNTATCATQRLANFL[Aib]HSSNNFGPILPPTNVGSNTY-NH2
modifications: disulfide 2-7; N-terminus assumed
SMILES: CC[C@H](C)[C@H](NC(=O)[C@@H]1CCCN1C(=O)CNC(=O)[C@H](Cc1ccccc1)NC(=O)[C@H](CC(N)=O)NC(=O)[C@H](CC(N)=O)NC(=O)[C@H](CO)NC(=O)[C@H](CO)NC(=O)[C@H](Cc1c[nH]cn1)NC(=O)C(C)(C)NC(=O)[C@H](CC(C)C)NC(=O)[C@H](Cc1ccccc1)NC(=O)[C@H](CC(N)=O)NC(=O)[C@H](C)NC(=O)[C@H](CC(C)C)NC(=O)[C@H](CCCNC(=N)N)NC(=O)[C@H](CCC(N)=O)NC(=O)[C@@H](NC(=O)[C@H](C)NC(=O)[C@@H]1CSSC[C@H](NC(=O)[C@@H](N)CCCCNC(=O)CC[C@H](NC(=O)CCCCCCCCCCCCCCCCC(=O)O)C(=O)O)C(=O)N[C@@H](CC(N)=O)C(=O)N[C@@H]([C@@H](C)O)C(=O)N[C@@H](C)C(=O)N[C@@H]([C@@H](C)O)C(=O)N1)[C@@H](C)O)C(=O)N[C@@H](CC(C)C)C(=O)N1CCC[C@H]1C(=O)N1CCC[C@H]1C(=O)N[C@H](C(=O)N[C@@H](CC(N)=O)C(=O)N[C@H](C(=O)NCC(=O)N[C@@H](CO)C(=O)N[C@@H](CC(N)=O)C(=O)N[C@H](C(=O)N[C@@H](Cc1ccc(O)cc1)C(N)=O)[C@@H](C)O)C(C)C)[C@@H](C)O
B2: Peptide 24 (SEQ ID NO: 24) (peptide)
peptide: K([γGlu-γGlu-C18 diacid])CNTATCATQRLANFLVHSSNN[αMeF]GPILPPTRVGSNTY-NH2
modifications: disulfide 2-7; N-terminus assumed
SMILES: CC[C@H](C)[C@H](NC(=O)[C@@H]1CCCN1C(=O)CNC(=O)[C@](C)(Cc1ccccc1)NC(=O)[C@H](CC(N)=O)NC(=O)[C@H](CC(N)=O)NC(=O)[C@H](CO)NC(=O)[C@H](CO)NC(=O)[C@H](Cc1c[nH]cn1)NC(=O)[C@@H](NC(=O)[C@H](CC(C)C)NC(=O)[C@H](Cc1ccccc1)NC(=O)[C@H](CC(N)=O)NC(=O)[C@H](C)NC(=O)[C@H](CC(C)C)NC(=O)[C@H](CCCNC(=N)N)NC(=O)[C@H](CCC(N)=O)NC(=O)[C@@H](NC(=O)[C@H](C)NC(=O)[C@@H]1CSSC[C@H](NC(=O)[C@@H](N)CCCCNC(=O)CC[C@H](NC(=O)CC[C@H](NC(=O)CCCCCCCCCCCCCCCCC(=O)O)C(=O)O)C(=O)O)C(=O)N[C@@H](CC(N)=O)C(=O)N[C@@H]([C@@H](C)O)C(=O)N[C@@H](C)C(=O)N[C@@H]([C@@H](C)O)C(=O)N1)[C@@H](C)O)C(C)C)C(=O)N[C@@H](CC(C)C)C(=O)N1CCC[C@H]1C(=O)N1CCC[C@H]1C(=O)N[C@H](C(=O)N[C@@H](CCCNC(=N)N)C(=O)N[C@H](C(=O)NCC(=O)N[C@@H](CO)C(=O)N[C@@H](CC(N)=O)C(=O)N[C@H](C(=O)N[C@@H](Cc1ccc(O)cc1)C(N)=O)[C@@H](C)O)C(C)C)[C@@H](C)O
B3: Peptide 140 (SEQ ID NO: 140) (peptide)
peptide: K([γGlu-C18 diacid])KCNTATCATQRLANFL[Aib]HSSNNFGPILPPTEVGSNTY-NH2
modifications: disulfide 3-8; N-terminus assumed
SMILES: CC[C@H](C)[C@H](NC(=O)[C@@H]1CCCN1C(=O)CNC(=O)[C@H](Cc1ccccc1)NC(=O)[C@H](CC(N)=O)NC(=O)[C@H](CC(N)=O)NC(=O)[C@H](CO)NC(=O)[C@H](CO)NC(=O)[C@H](Cc1c[nH]cn1)NC(=O)C(C)(C)NC(=O)[C@H](CC(C)C)NC(=O)[C@H](Cc1ccccc1)NC(=O)[C@H](CC(N)=O)NC(=O)[C@H](C)NC(=O)[C@H](CC(C)C)NC(=O)[C@H](CCCNC(=N)N)NC(=O)[C@H](CCC(N)=O)NC(=O)[C@@H](NC(=O)[C@H](C)NC(=O)[C@@H]1CSSC[C@H](NC(=O)[C@H](CCCCN)NC(=O)[C@@H](N)CCCCNC(=O)CC[C@H](NC(=O)CCCCCCCCCCCCCCCCC(=O)O)C(=O)O)C(=O)N[C@@H](CC(N)=O)C(=O)N[C@@H]([C@@H](C)O)C(=O)N[C@@H](C)C(=O)N[C@@H]([C@@H](C)O)C(=O)N1)[C@@H](C)O)C(=O)N[C@@H](CC(C)C)C(=O)N1CCC[C@H]1C(=O)N1CCC[C@H]1C(=O)N[C@H](C(=O)N[C@@H](CCC(=O)O)C(=O)N[C@H](C(=O)NCC(=O)N[C@@H](CO)C(=O)N[C@@H](CC(N)=O)C(=O)N[C@H](C(=O)N[C@@H](Cc1ccc(O)cc1)C(N)=O)[C@@H](C)O)C(C)C)[C@@H](C)O
B4: Peptide 20 (SEQ ID NO: 20) (peptide)
peptide: K([γGlu-γGlu-C18 diacid])CNTATCATQRLANFLRHSSNN[αMeF]GPILPPTNVGSNTY-NH2
modifications: disulfide 2-7; N-terminus assumed
SMILES: CC[C@H](C)[C@H](NC(=O)[C@@H]1CCCN1C(=O)CNC(=O)[C@](C)(Cc1ccccc1)NC(=O)[C@H](CC(N)=O)NC(=O)[C@H](CC(N)=O)NC(=O)[C@H](CO)NC(=O)[C@H](CO)NC(=O)[C@H](Cc1c[nH]cn1)NC(=O)[C@H](CCCNC(=N)N)NC(=O)[C@H](CC(C)C)NC(=O)[C@H](Cc1ccccc1)NC(=O)[C@H](CC(N)=O)NC(=O)[C@H](C)NC(=O)[C@H](CC(C)C)NC(=O)[C@H](CCCNC(=N)N)NC(=O)[C@H](CCC(N)=O)NC(=O)[C@@H](NC(=O)[C@H](C)NC(=O)[C@@H]1CSSC[C@H](NC(=O)[C@@H](N)CCCCNC(=O)CC[C@H](NC(=O)CC[C@H](NC(=O)CCCCCCCCCCCCCCCCC(=O)O)C(=O)O)C(=O)O)C(=O)N[C@@H](CC(N)=O)C(=O)N[C@@H]([C@@H](C)O)C(=O)N[C@@H](C)C(=O)N[C@@H]([C@@H](C)O)C(=O)N1)[C@@H](C)O)C(=O)N[C@@H](CC(C)C)C(=O)N1CCC[C@H]1C(=O)N1CCC[C@H]1C(=O)N[C@H](C(=O)N[C@@H](CC(N)=O)C(=O)N[C@H](C(=O)NCC(=O)N[C@@H](CO)C(=O)N[C@@H](CC(N)=O)C(=O)N[C@H](C(=O)N[C@@H](Cc1ccc(O)cc1)C(N)=O)[C@@H](C)O)C(C)C)[C@@H](C)O

target: T1, human calcitonin receptor (human, UniProt P30988 25-474); assay: cell-based or functional assay
T1 sequence (looked up): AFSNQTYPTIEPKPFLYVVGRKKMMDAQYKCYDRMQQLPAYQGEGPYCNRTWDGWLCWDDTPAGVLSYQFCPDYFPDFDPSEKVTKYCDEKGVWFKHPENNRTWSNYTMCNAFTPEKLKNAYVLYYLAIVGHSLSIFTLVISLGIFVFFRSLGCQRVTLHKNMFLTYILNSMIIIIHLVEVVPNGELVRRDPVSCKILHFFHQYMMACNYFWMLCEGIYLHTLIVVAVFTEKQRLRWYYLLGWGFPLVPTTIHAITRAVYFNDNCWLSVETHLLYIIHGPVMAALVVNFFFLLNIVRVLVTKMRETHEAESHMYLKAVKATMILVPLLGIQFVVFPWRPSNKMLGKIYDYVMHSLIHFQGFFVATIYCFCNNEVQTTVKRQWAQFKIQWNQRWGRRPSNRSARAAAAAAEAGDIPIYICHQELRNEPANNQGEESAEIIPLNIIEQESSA

Point of comparison: B2, “EC50 (cAMP production)” value 1860 pM. Against it:
- K([γGlu-γGlu-C18 diacid])CNTATCATQRLANFLRHSSNN[αMeF]GPILPPTEVGSNTY-NH2 (disulfide 2-7) [Peptide 18 (SEQ ID NO: 18)] — 2.5-fold higher, 4690 pM
- B1 — 1.6-fold lower, 1200 pM
- B3 — 3.3-fold higher, 6050 pM
- B4 — 2.5-fold higher, 4590 pM

target: T2, human amylin receptor (calcitonin receptor co-expressed with receptor activity modifying protein, RAMP3) (human, UniProt P30988 25-474; O60896 24-148); assay: cell-based or functional assay
T2 sequence (looked up) 1: T1 sequence (looked up)
T2 sequence (looked up) 2: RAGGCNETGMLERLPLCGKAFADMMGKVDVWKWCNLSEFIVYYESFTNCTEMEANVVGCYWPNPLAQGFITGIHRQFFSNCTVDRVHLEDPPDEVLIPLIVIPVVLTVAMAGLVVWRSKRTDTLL

Point of comparison: B2, “EC50 (cAMP production)” value 127 pM. Against it:
- K([γGlu-γGlu-C18 diacid])CNTATCATQRLANFLRHSSNN[αMeF]GPILPPTEVGSNTY-NH2 (disulfide 2-7) [Peptide 18 (SEQ ID NO: 18)] — 2.5-fold higher, 319 pM
- B1 — within 1.5-fold, 130 pM
- B3 — 5.2-fold higher, 656 pM
- B4 — within 1.5-fold, 174 pM

Point of comparison: B4, “Ratio (EC50 hCTR / EC50 hAMYR3)” value 26. Against it:
- K([γGlu-γGlu-C18 diacid])CNTATCATQRLANFLRHSSNN[αMeF]GPILPPTEVGSNTY-NH2 (disulfide 2-7) [Peptide 18 (SEQ ID NO: 18)] — lower, 15
- B1 — lower, 9.2
- B2 — lower, 15
- B3 — lower, 9.2

target: T3, rat amylin receptor (calcitonin receptor co-expressed with receptor activity modifying protein, RAMP3) (rat, UniProt P32214 25-516; Q9JJ73 23-147); assay: cell-based or functional assay
T3 sequence (looked up) 1: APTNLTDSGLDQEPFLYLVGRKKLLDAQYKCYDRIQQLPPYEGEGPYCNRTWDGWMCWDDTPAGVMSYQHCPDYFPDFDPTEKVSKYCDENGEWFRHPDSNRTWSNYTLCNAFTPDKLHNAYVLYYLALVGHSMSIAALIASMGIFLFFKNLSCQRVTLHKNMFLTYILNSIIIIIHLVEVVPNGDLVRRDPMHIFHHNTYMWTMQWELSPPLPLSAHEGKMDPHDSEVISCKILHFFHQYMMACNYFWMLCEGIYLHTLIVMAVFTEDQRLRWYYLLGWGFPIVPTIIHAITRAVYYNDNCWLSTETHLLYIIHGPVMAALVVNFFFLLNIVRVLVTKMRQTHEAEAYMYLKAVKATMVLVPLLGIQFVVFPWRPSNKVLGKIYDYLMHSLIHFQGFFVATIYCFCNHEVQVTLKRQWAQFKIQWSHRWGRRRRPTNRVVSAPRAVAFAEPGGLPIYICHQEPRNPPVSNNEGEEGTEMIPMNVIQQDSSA
T3 sequence (looked up) 2: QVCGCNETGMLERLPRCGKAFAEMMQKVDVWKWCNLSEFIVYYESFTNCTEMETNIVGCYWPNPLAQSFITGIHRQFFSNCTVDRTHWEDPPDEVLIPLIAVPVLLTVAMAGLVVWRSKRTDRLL

Point of comparison: B1, “EC50 (cAMP production)” value 5.6 pM. Against it:
- K([γGlu-γGlu-C18 diacid])CNTATCATQRLANFLRHSSNN[αMeF]GPILPPTEVGSNTY-NH2 (disulfide 2-7) [Peptide 18 (SEQ ID NO: 18)] — 2.9-fold higher, 16.5 pM
- B2 — 3.2-fold higher, 17.7 pM
- B3 — 3.5-fold higher, 19.5 pM
- B4 — 1.9-fold higher, 10.4 pM

target: T4, rat calcitonin receptor (rat, UniProt P32214 25-516); assay: cell-based or functional assay
T4 sequence (looked up): T3 sequence (looked up) 1

Point of comparison: B1, “EC50 (cAMP production)” value 522 pM. Against it:
- K([γGlu-γGlu-C18 diacid])CNTATCATQRLANFLRHSSNN[αMeF]GPILPPTEVGSNTY-NH2 (disulfide 2-7) [Peptide 18 (SEQ ID NO: 18)] — 5.9-fold higher, 3090 pM
- B2 — within 1.5-fold, 755 pM
- B3 — 2.3-fold higher, 1220 pM
- B4 — 3.5-fold higher, 1850 pM
